The values below come from publication PMC1635724.

This assay has as its target 6His-PfJ (4.1R binding region of Plasmodium falciparum erythrocyte binding antigen-181, aa 945-1097) (P. falciparum) (UniProt Q8I2B4). Description: pull-down; ~700 ng 6His-PfJ coupled to His-Select magnetic beads, GST-4.1R domain (150 ng to 2 μg; heat denatured protein as control) added for 1 hr at room temperature, rinsed with TBS, eluted with 1% SDS, SDS-PAGE with scanning densitometry; Kd a rough estimate from linear transformations of three curves.

As for “GST-10 kDa domain of human erythrocyte protein 4.1 (4.1R) (domain or fragment)”, the Kd was 745 nM.
